The results in this text go back to article PMC10681739, “High-throughput data and modeling reveal insights into the mechanisms of cooperative DNA-binding by transcription factor proteins”.

The chains are these.
B1: Table S3 B row 3344 (dsDNA)
DNA 1: CCGAAGCCTGCGGTTTCATGTGGGAGCAAGCGGCCT
DNA 2: AGGCCGCTTGCTCCCACATGAAACCGCAGGCTTCGG
B2: Table S3 B row 1191 (dsDNA)
DNA 1: CTCTTGCGGTCAGGTCACGCCGCCTGAAGCCGCCCC
DNA 2: GGGGCGGCTTCAGGCGGCGTGACCTGACCGCAAGAG
B3: Table S3 B row 3447 (dsDNA)
DNA 1: TGATTGCGGTTTCGGTCGCTCTCCCGTGTTTGCCGG
DNA 2: CCGGCAAACACGGGAGAGCGACCGAAACCGCAATCA
B4: Table S3 B row 1072 (dsDNA)
DNA 1: CTTCTTCTTGCGGTTTCAATCACAGTAAACAGACGT
DNA 2: ACGTCTGTTTACTGTGATTGAAACCGCAAGAAGAAG
B5: Table S3 B row 278 (dsDNA)
DNA 1: TAAGTGTTGTGGTTTTTTAGTTTACTGTTCAGTTGC
DNA 2: GCAACTGAACAGTAAACTAAAAAACCACAACACTTA
B6: Table S3 B row 2433 (dsDNA)
DNA 1: GGGTTTTGTGGTTAGCAAGTTCCAGCTCCCGTCGCA
DNA 2: TGCGACGGGAGCTGGAACTTGCTAACCACAAAACCC
B7: Table S3 B row 474 (dsDNA)
DNA 1: TCGTATTTGCGGTCAGCCTCTTACGTAATGTGCTTG
DNA 2: CAAGCACATTACGTAAGAGGCTGACCGCAAATACGA
B8: Table S3 B row 2036 (dsDNA)
DNA 1: GATTGCGGTTGGGACTTTCCCTAAGTCATTTGCTGT
DNA 2: ACAGCAAATGACTTAGGGAAAGTCCCAACCGCAATC
B9: Table S3 B row 1477 (dsDNA)
DNA 1: TTCTTTGGTCAACCGCAAGCCTCTGCCGCGTCTCGC
DNA 2: GCGAGACGCGGCAGAGGCTTGCGGTTGACCAAAGAA
B10: Table S3 B row 1798 (dsDNA)
DNA 1: CTCTCTTGCGGTTTGCAGCCAGATCACCTCCCATAC
DNA 2: GTATGGGAGGTGATCTGGCTGCAAACCGCAAGAGAG
B11: Table S3 B row 1506 (dsDNA)
DNA 1: GTTCCTGGTTTGTGGTTATGATTTGCTGTTTGCCTT
DNA 2: AAGGCAAACAGCAAATCATAACCACAAACCAGGAAC
B12: Table S3 B row 1801 (dsDNA)
DNA 1: ACTCTAACCGCAGTGACGTGGGACCTCCTCGGCAGG
DNA 2: CCTGCCGAGGAGGTCCCACGTCACTGCGGTTAGAGT
B13: Table S3 B row 2604 (dsDNA)
DNA 1: CGGGTTAAACCGCAGCCGCGCCCACACTTTCGGGGT
DNA 2: ACCCCGAAAGTGTGGGCGCGGCTGCGGTTTAACCCG
B14: Table S3 B row 3965 (dsDNA)
DNA 1: GGAGAAACCGCAACTCGGAACTACGGGAACGGAGGA
DNA 2: TCCTCCGTTCCCGTAGTTCCGAGTTGCGGTTTCTCC
B15: Table S3 B row 3390 (dsDNA)
DNA 1: TTTCATATTTGTGGTTTTGGTGTTGCCTCTTACACA
DNA 2: TGTGTAAGAGGCAACACCAAAACCACAAATATGAAA
B16: Table S3 B row 852 (dsDNA)
DNA 1: CGGCAGCTTGCGGTTAGCCGTTCTTTCAGCCCAGTT
DNA 2: AACTGGGCTGAAAGAACGGCTAACCGCAAGCTGCCG
B17: Table S3 B row 1768 (dsDNA)
DNA 1: TGGTTGTGGTTTGGAGATTCTGATGTCATTTGCTGT
DNA 2: ACAGCAAATGACATCAGAATCTCCAAACCACAACCA
B18: Table S3 B row 3657 (dsDNA)
DNA 1: CCACCCAAAACCACAACCATTTGCCCCATCACTTTG
DNA 2: CAAAGTGATGGGGCAAATGGTTGTGGTTTTGGGTGG
B19: Table S3 B row 943 (dsDNA)
DNA 1: TGTTTGCGGTTTAGACCCCAAAGATTCATGTTGGTA
DNA 2: TACCAACATGAATCTTTGGGGTCTAAACCGCAAACA
B20: Table S3 B row 2934 (dsDNA)
DNA 1: TTTTTGTGGTTTAGCCCTCAGAGCTCCCTGCCAGAG
DNA 2: CTCTGGCAGGGAGCTCTGAGGGCTAAACCACAAAAA
B21: Table S3 B row 3235 (dsDNA)
DNA 1: AAGTCAAAACCGCAAACGCTCAGTAAAAAAGACTCT
DNA 2: AGAGTCTTTTTTACTGAGCGTTTGCGGTTTTGACTT
B22: Table S3 B row 3968 (dsDNA)
DNA 1: CCGAGTTGCGGTTTCTCCGTTAGTGCTTACGGGTTG
DNA 2: CAACCCGTAAGCACTAACGGAGAAACCGCAACTCGG
B23: Table S3 B row 3458 (dsDNA)
DNA 1: CTGATTGTGGTTTTGATTTGCAATTCCCTGATGATT
DNA 2: AATCATCAGGGAATTGCAAATCAAAACCACAATCAG
B24: Table S3 B row 584 (dsDNA)
DNA 1: GTCCTCTTTGTGGTTTCCATTTGCTTTGTGAAAGAG
DNA 2: CTCTTTCACAAAGCAAATGGAAACCACAAAGAGGAC
B25: Table S3 B row 1134 (dsDNA)
DNA 1: GTTAAGCTGCGGTCAGACCTAAGGGAGGATCTGGCT
DNA 2: AGCCAGATCCTCCCTTAGGTCTGACCGCAGCTTAAC
B26: Table S3 B row 2222 (dsDNA)
DNA 1: CAGAAACCGCAGAACTGAGCTGACGACCCGGGAGTG
DNA 2: CACTCCCGGGTCGTCAGCTCAGTTCTGCGGTTTCTG
B27: Table S3 B row 3420 (dsDNA)
DNA 1: GGTTTGTGGTTTCCCCTTACTGTCTCCACTGCCTTC
DNA 2: GAAGGCAGTGGAGACAGTAAGGGGAAACCACAAACC
B28: Table S3 B row 2218 (dsDNA)
DNA 1: TCCTTGCGGTTTGCTTTCGCCGTCTCCGAACCGAGG
DNA 2: CCTCGGTTCGGAGACGGCGAAAGCAAACCGCAAGGA
B29: Table S3 B row 272 (dsDNA)
DNA 1: ACGAGGTTGCGGTTTCTCCACCTCCTCAACAACCTG
DNA 2: CAGGTTGTTGAGGAGGTGGAGAAACCGCAACCTCGT
B30: Table S3 B row 3806 (dsDNA)
DNA 1: TCAGTCTTGTGGTTAAGGGAGGCAGGGTACTGTTGG
DNA 2: CCAACAGTACCCTGCCTCCCTTAACCACAAGACTGA

Chain of RUNX1 (Q01196 whole entry): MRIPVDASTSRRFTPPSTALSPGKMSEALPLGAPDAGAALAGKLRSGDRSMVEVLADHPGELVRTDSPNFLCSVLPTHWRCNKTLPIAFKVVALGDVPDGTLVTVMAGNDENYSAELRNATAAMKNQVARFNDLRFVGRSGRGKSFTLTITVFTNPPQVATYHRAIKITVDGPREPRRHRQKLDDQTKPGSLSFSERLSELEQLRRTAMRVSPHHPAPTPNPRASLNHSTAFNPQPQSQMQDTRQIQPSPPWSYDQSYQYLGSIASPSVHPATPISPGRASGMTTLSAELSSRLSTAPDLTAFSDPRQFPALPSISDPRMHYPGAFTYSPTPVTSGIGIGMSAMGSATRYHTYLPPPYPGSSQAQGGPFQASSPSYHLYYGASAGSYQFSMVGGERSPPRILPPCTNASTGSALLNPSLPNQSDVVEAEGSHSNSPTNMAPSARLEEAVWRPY

This data set has as its target RUNX1 (Homo sapiens, UniProt Q01196). As to the kind of experiment: gcPBM; 2 nM RUNX1. The note with it: tags: N-terminal GST (pDEST15), kept (PMC6008103); label: surface-attached array probe.
Regarding B1, the binding signal is 37500 PBM fluorescence, median of replicate spots.

Turning to B2, the binding signal is 30900 PBM fluorescence, median of replicate spots.

As for B3, the binding signal was 50800 PBM fluorescence, median of replicate spots.

Regarding B4, the binding signal is 27500 PBM fluorescence, median of replicate spots.

Consider B5, for which the binding signal is 20300 PBM fluorescence, median of replicate spots.

Turning to B6, the binding signal is 18900 PBM fluorescence, median of replicate spots.

For B7, the binding signal is 29200 PBM fluorescence, median of replicate spots.

As for B8, the binding signal was 53200 PBM fluorescence, median of replicate spots.

Consider B9, for which the binding signal was 37300 PBM fluorescence, median of replicate spots.

With B10, the binding signal is 37400 PBM fluorescence, median of replicate spots.

With B11, the binding signal was 24200 PBM fluorescence, median of replicate spots.

Take B12: the binding signal was 46700 PBM fluorescence, median of replicate spots.

Turning to B13, the binding signal is 28100 PBM fluorescence, median of replicate spots.

With B14, the binding signal is 26700 PBM fluorescence, median of replicate spots.

B15: the binding signal was 18800 PBM fluorescence, median of replicate spots.

Take B16: the binding signal was 48900 PBM fluorescence, median of replicate spots.

Regarding B17, the binding signal was 18000 PBM fluorescence, median of replicate spots.

In the case of B18, the binding signal was 31700 PBM fluorescence, median of replicate spots.

As for B19, the binding signal is 38700 PBM fluorescence, median of replicate spots.

As for B20, the binding signal is 23200 PBM fluorescence, median of replicate spots.

As to B21, the binding signal is 42400 PBM fluorescence, median of replicate spots.

With B22, the binding signal was 54300 PBM fluorescence, median of replicate spots.

Turning to B23, the binding signal was 25900 PBM fluorescence, median of replicate spots.

With B24, the binding signal was 34700 PBM fluorescence, median of replicate spots.

Take B25: the binding signal is 17500 PBM fluorescence, median of replicate spots.

B26: the binding signal is 42300 PBM fluorescence, median of replicate spots.

On to B27, for which the binding signal is 28800 PBM fluorescence, median of replicate spots.

Regarding B28, the binding signal was 30700 PBM fluorescence, median of replicate spots.

For the molecule B29, the binding signal is 32700 PBM fluorescence, median of replicate spots.

As to B30, the binding signal was 20500 PBM fluorescence, median of replicate spots.
